The text below walks through data of patent US20240115701A1.

The target in experiment [1] is MabSelect Sure Protein A ligand (protein A resin, GE Healthcare). Kind of experiment: batch resin-slurry partitioning on MabSelect Sure protein A resin; Strip: 100 mM acetic acid; reference mAb1.
Experiment [2] has the same target. Kind of experiment: batch resin-slurry partitioning on MabSelect Sure protein A resin; Strip: 100 mM acetic acid; reference mAb2.
Experiment [3] has the same target. As to the kind of experiment: batch resin-slurry partitioning on MabSelect Sure protein A resin; Elute: 20 mM NaAcetate, pH 3.5; reference mAb2.
Experiment [4] shares this target. As to the kind of experiment: batch resin-slurry partitioning on MabSelect Sure protein A resin; Strip: 100 mM acetic acid.
Experiment [5] has the same target. As to the kind of experiment: batch resin-slurry partitioning on MabSelect Sure protein A resin; Equil/wash: 10 mM NaPhosphate, pH 6.5.
Experiment [6] shares this target. As to the kind of experiment: batch resin-slurry partitioning on MabSelect Sure protein A resin; Equil/wash: 10 mM NaPhosphate, pH 6.5; reference mAb2.
For experiment [7] the target is unchanged. Kind of experiment: partitioning on protein A resin under loading conditions; reference mAb3.
Experiment [8] has the same target. Kind of experiment: batch resin-slurry partitioning on MabSelect Sure protein A resin; Equil/wash: 10 mM NaPhosphate, pH 6.5; reference mAb1.
For experiment [9] the target is unchanged. Kind of experiment: batch resin-slurry partitioning on MabSelect Sure protein A resin; High salt wash: 10 mM NaPhosphate, pH 6.5, 0.5M NaCl; reference mAb2.
The target is the same in experiment [10]. Kind of experiment: batch resin-slurry partitioning on MabSelect Sure protein A resin; High salt wash: 10 mM NaPhosphate, pH 6.5, 0.5M NaCl; reference mAb1.
The target is the same in experiment [11]. Kind of experiment: batch resin-slurry partitioning on MabSelect Sure protein A resin; High salt wash: 10 mM NaPhosphate, pH 6.5, 0.5M NaCl.
Experiment [12] has the same target. As to the kind of experiment: batch resin-slurry partitioning on MabSelect Sure protein A resin; Elute: 20 mM NaAcetate, pH 3.5.
The target is the same in experiment [13]. Kind of experiment: batch resin-slurry partitioning on MabSelect Sure protein A resin; Elute: 20 mM NaAcetate, pH 3.5; reference mAb1.

In the case of phospholipase B-like 2 (PLBL2) (enzyme), the figures for the log α (log KP PLBL2 - log KP mAb1) in [1], in experiment [8] and in experiment [10] were 0, -2 and -2, respectively. Moreover, the log α (log KP PLBL2 - log KP mAb2) is 0 in experiment [2], -0.3 in experiment [3], -2 in experiment [6] and -2 in [9]. Moreover, the log KP (partition coefficient, bound/free) in [4], in experiment [5], in [11] and in experiment [12] was 0 each time. For the same substance, the log α (log KP PLBL2 - log KP mAb3) in experiment [7] was -2.
Take phospholipase B-like 2 (PLBL2): in [13], the log α (log KP PLBL2 - log KP mAb1) was 0.
